Substrate: Nc1ccc(C(=O)NCC(=O)O)cc1
Experiment: cells, lysate or membranes named

B1: Solute carrier family 22 member 6 (Rattus norvegicus) (protein)
chain: MAFNDLLKQVGGVGRFQLIQVTMVVAPLLLMASHNTLQNFTAAIPPHHCRPPANANLSKDGGLEAWLPLDKQGQPESCLRFTSPQWGPPFYNGTEANGTRVTEPCIDGWVYDNSTFPSTIVTEWNLVCSHRAFRQLAQSLYMVGVLLGAMVFGYLADRLGRRKVLILNYLQTAVSGTCAAYAPNYTVYCVFRLLSGMSLASIAINCMTLNVEWMPIHTRAYVGTLIGYVYSLGQFLLAGIAYAVPHWRHLQLVVSVPFFIAFIYSWFFIESARWYSSSGRLDLTLRALQRVARINGKQEEGAKLSIEVLRTSLQKELTLSKGQASAMELLRCPTLRHLFLCLSMLWFATSFAYYGLVMDLQGFGVSMYLIQVIFGAVDLPAKFVCFLVINSMGRRPAQMASLLLAGICILVNGIIPKSHTIIRTSLAVLGKGCLASSFNCIFLYTGELYPTVIRQTGLGMGSTMARVGSIVSPLVSMTAEFYPSMPLFIFGAVPVVASAVTALLPETLGQPLPDTVQDLKSRSRGKQNQQQQEQQKQMMPLQASTQEKNGL
Work on B1 yielded a Km of 43.2 µM.

— ChEMBL document CHEMBL2074186
